We go through one substance from patent US7294706.

The assay addresses FGFR2 over-expressed on CHO cells (CHO-FGFR2) and on 32D cells (32D-FGFR2) (UniProt P21803). The experiment in a line: competition of unlabeled protein with 125I-FGF4 (Gly79-Leu206) for CHO-FGFR2 cells, +heparin.

Turning to “FGF4 (Gly79-Leu206) N89A/K198A/K183A/K188A (from UniProt P08620 79-206) (ligand)”, the IC50 mutant/IC50 wild-type (ratio (IC50 mutant/IC50 wild-type)) is above 1000.
